# Experimental data reported in patent publication US20040127682A1.
# Experiments:
# [1] = target: human CD3 (CD3 epsilon of the T-cell receptor complex) on Jurkat cells (human) (UniProt P07766); assay: competition with 125I-UCHT1 tracer on Jurkat cells; competitor at 100 nM
# [2] = target: human CD3 (CD3 epsilon of the T-cell receptor complex) on Jurkat cells (human) (UniProt P07766); assay: competition with 125I-UCHT1 tracer on Jurkat cells; competitor at 1 nM
# Chain of UniProt P07766 (P07766 23-207, one chain of several): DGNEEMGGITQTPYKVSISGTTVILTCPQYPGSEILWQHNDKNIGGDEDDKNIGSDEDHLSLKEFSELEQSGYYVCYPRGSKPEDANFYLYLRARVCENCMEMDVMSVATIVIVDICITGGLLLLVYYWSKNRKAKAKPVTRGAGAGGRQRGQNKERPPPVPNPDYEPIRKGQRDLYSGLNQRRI
substance,measurement,setting,value
scUCHT1,% of 125I-UCHT1 bound to cells,[1],0%
same,% of 125I-UCHT1 bound to cells,[2],80%
